Experimental data from the MegaScale stability set (Tsuboyama et al. 2023).

B1: HHH_rd1_0493 (parent)
chain: RDEDEKEKIKEALKRGNEDKAKEIAKRANVSPEEYERLRKEAE
B2: EHEE_rd3_0053 (parent)
chain: TYTFKVDNKDQAKKAAKWAKKLGLSFQIEKHGDTFKITVQ

Variants of: B1
Experiment: folding stability dG (cDNA display proteolysis); higher = more stable
Settings: PBS, room temperature

| Variant | folding stability dG [kcal/mol] |
| --- | --- |
| RDEDEKEKIKEALKRGNEDKAKEIAKRANVSPEEYERLRKELE | 2.54 |
| RDEDEKEKIKEALKRGNEDKAKEIAKRANVSPEEYERLRKEFE | 2.29 |
| RDEDEKEKIKEALKRGNEDKAKEIAKRANVSPEEYERLRKERE | 1.21 |
| RDEDEKEKIKEALKRGNEDKAKEIAKRANVSPEEYERLRKENE | 1.81 |
| RDEDEKEKIKEALKRGNEDKAKEIAKRANVSPEEYERLRKEPE | 0.795 |
| RDEDEKEKIKEALKRGNEDKAKEIAKRANVSPEEYERLRKEDE | 0.965 |
| RDEDEKEKIKEALKRGNEDKAKEIAKRANVSPEEYERLRKEME | 2.51 |
| RDEDEKEKIKEALKRGNEDKAKEIAKRANVSPEEYERLRKEHE | 1.55 |
| RDEDEKEKIKEALKRGNEDKAKEIAKRANVSPEEYERLRKEGE | 1.62 |
| RDEDEKEKIKEALKRGNEDKAKEIAKRANVSPEEYERLRKEWE | 2.2 |
| RDEDEKEKIKEALKRGNEDKAKEIAKRANVSPEEYERLRKEQE | 1.88 |
| RDEDEKEKIKEALKRGNEDKAKEIAKRANVSPEEYERLRKETE | 2.31 |
| RDEDEKEKIKEALKRGNEDKAKEIAKRANVSPEEYERLRKESE | 2.37 |
| RDEDEKEKIKEALKRGNEDKAKEIAKRANVSPEEYERLRKEKE | 1.03 |
| RDEDEKEKIKEALKRGNEDKAKEIAKRANVSPEEYERLRKEVE | 3.33 |
| RDEDEKEKIKEALKRGNEDKAKEIAKRANVSPEEYERLRKEIE | 2.87 |
| RDEDEKEKIKEALKRGNEDKAKEIAKRANVSPEEYERLRKEYE | 2.14 |
| RDEDEKEKIKEALKRGNEDKAKEIAKRANVSPEEYERLRKEEE | 1.25 |
| RDEDEKEKIKEALKRGNEDKAKEIAKRANVSPEEYERLHKEAE | 1.8 |

| Variant | folding stability dG [kcal/mol] |
| --- | --- |
| RDEDEKEKIKEALKRGNEDKAKEIAKRANVSPEEYERLVKEAE | 2.65 |
| RDEDEKEKIKEALKRGNEDKAKEIAKRANVSPEEYERLPKEAE | 0.097 |
| RDEDEKEKIKEALKRGNEDKAKEIAKRANVSPEEYERLGKEAE | 1.16 |
| RDEDEKEKIKEALKRGNEDKAKEIAKRANVSPEEYERLSKEAE | 2.1 |
| RDEDEKEKIKEALKRGNEDKAKEIAKRANVSPEEYERLDKEAE | 0.392 |
| RDEDEKEKIKEALKRGNEDKAKEIAKRANVSPEEYERLFKEAE | 1.95 |
| RDEDEKEKIKEALKRGNEDKAKEIAKRANVSPEEYERLNKEAE | 1.18 |
| RDEDEKEKIKEALKRGNEDKAKEIAKRANVSPEEYERLAKEAE | 2.37 |
| RDEDEKEKIKEALKRGNEDKAKEIAKRANVSPEEYERLIKEAE | 2.09 |
| RDEDEKEKIKEALKRGNEDKAKEIAKRANVSPEEYERLYKEAE | 1.87 |
| RDEDEKEKIKEALKRGNEDKAKEIAKRANVSPEEYERLMKEAE | 2.1 |
| RDEDEKEKIKEALKRGNEDKAKEIAKRANVSPEEYERLWKEAE | 2.02 |
| RDEDEKEKIKEALKRGNEDKAKEIAKRANVSPEEYERLEKEAE | 1.77 |
| RDEDEKEKIKEALKRGNEDKAKEIAKRANVSPEEYERLQKEAE | 2.2 |
| RDEDEKEKIKEALKRGNEDKAKEIAKRANVSPEEYERLCKEAE | 1.52 |
| RDEDEKEKIKEALKRGNEDKAKEIAKRANVSPEEYERLTKEAE | 1.89 |
| RDEDEKEKIKEALKRGNEDKAKEIAKRANVSPEEYERLKKEAE | 2.99 |
| RDEDEKEKIKEALKRGNEDKAKEIAKRANVSPEEYERLLKEAE | 2.17 |
| RDEDEKEKIKEALKRGNEDKAKEIAKRANVSPEEYERLRKQAE | 2.77 |

| Variant | folding stability dG [kcal/mol] |
| --- | --- |
| RDEDEKEKIKEALKRGNEDKAKEIAKRANVSPEEYERLRKYAE | 1.63 |
| RDEDEKEKIKEALKRGNEDKAKEIAKRANVSPEEYERLRKNAE | 1.77 |
| RDEDEKEKIKEALKRGNEDKAKEIAKRANVSPEEYERLRKTAE | 1.97 |
| RDEDEKEKIKEALKRGNEDKAKEIAKRANVSPEEYERLRKPAE | 0.8 |
| RDEDEKEKIKEALKRGNEDKAKEIAKRANVSPEEYERLRKMAE | 2.58 |
| RDEDEKEKIKEALKRGNEDKAKEIAKRANVSPEEYERLRKRAE | 2.07 |
| RDEDEKEKIKEALKRGNEDKAKEIAKRANVSPEEYERLRKKAE | 1.99 |
| RDEDEKEKIKEALKRGNEDKAKEIAKRANVSPEEYERLRKHAE | 1.7 |
| RDEDEKEKIKEALKRGNEDKAKEIAKRANVSPEEYERLRKAAE | 2.55 |
| RDEDEKEKIKEALKRGNEDKAKEIAKRANVSPEEYERLRKFAE | 1.84 |
| RDEDEKEKIKEALKRGNEDKAKEIAKRANVSPEEYERLRKCAE | 1.88 |
| RDEDEKEKIKEALKRGNEDKAKEIAKRANVSPEEYERLRKLAE | 2.63 |
| RDEDEKEKIKEALKRGNEDKAKEIAKRANVSPEEYERLRKSAE | 2.05 |
| RDEDEKEKIKEALKRGNEDKAKEIAKRANVSPEEYERLRKIAE | 2.38 |
| RDEDEKEKIKEALKRGNEDKAKEIAKRANVSPEEYERLRKDAE | 2.35 |
| RDEDEKEKIKEALKRGNEDKAKEIAKRANVSPEEYERLRKGAE | 1.59 |
| RDEDEKEKIKEALKRGNEDKAKEIAKRANVSPEEYERLRKWAE | 2.38 |
| RDEDEKEKIKEALKRGNEDKAKEIAKRANVSPEEYERLRKVAE | 2.15 |

Variants of: B2
Experiment: as above
Settings: PBS, room temperature

| Variant | folding stability dG [kcal/mol] |
| --- | --- |
| DYTFKVDNKDQAKKAAKWAKKLGLSFQIEKHGDTFKITVQ | 1.93 |
| CYTFKVDNKDQAKKAAKWAKKLGLSFQIEKHGDTFKITVQ | 3.57 |
| AYTFKVDNKDQAKKAAKWAKKLGLSFQIEKHGDTFKITVQ | 2.38 |
